The record followed here is article PMC6448480, “A Two-Way Proteome Microarray Strategy to Identify Novel Mycobacterium tuberculosis-Human Interactors” (Frontiers in Cellular and Infection Microbiology, 2019).

The target in this assay is T1, myc-tagged SMAD2 (human, UniProt Q15796 1-467, labeled with Cy3).
T1 construct: SMAD2, human; also called SMAD2-myc; source: cloned into pCMV-C-myc vector, purified as previously reported (Li et al., 2013)
Description: peptide or protein array. The settings on record: both partners purified.

T1 sequence (Q15796 whole entry): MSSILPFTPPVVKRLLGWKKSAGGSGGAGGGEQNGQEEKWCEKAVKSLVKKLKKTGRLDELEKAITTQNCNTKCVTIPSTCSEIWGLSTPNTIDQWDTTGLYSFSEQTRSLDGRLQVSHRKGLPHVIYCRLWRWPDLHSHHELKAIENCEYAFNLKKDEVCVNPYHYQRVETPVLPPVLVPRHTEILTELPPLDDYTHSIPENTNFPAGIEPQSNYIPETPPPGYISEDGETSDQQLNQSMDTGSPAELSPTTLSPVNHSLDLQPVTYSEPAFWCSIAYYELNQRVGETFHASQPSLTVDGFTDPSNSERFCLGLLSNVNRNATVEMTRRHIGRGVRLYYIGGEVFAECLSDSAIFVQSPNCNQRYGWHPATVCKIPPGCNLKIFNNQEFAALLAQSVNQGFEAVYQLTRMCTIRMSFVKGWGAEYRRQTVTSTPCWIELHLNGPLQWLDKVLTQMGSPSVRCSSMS

B1: Rv0577 (Putative glyoxylase Cfp32) on the Mtb proteome microarray (natural protein)
chain: MPKRSEYRQGTPNWVDLQTTDQSAAKKFYTSLFGWGYDDNPVPGGGGVYSMATLNGEAVAAIAPMPPGAPEGMPPIWNTYIAVDDVDAVVDKVVPGGGQVMMPAFDIGDAGRMSFITDPTGAAVGLWQANRHIGATLVNETGTLIWNELLTDKPDLALAFYEAVVGLTHSSMEIAAGQNYRVLKAGDAEVGGCMEPPMPGVPNHWHVYFAVDDADATAAKAAAAGGQVIAEPADIPSVGRFAVLSDPQGAIFSVLKPAPQQ
As to B1, the binding result was “binds”.

B2: Rv3241c (Ribosome hibernation promotion factor, Hpf) on the Mtb proteome microarray (natural protein)
chain: MSRLAVDSGQVLAEPKSNAEIVFKGRNVEIPDHFRIYVSQKLARLERFDRTIYLFDVELDHERNRRQRKSCQRVEITARGRGPVVRGEACADSFYAALESAVVKLESRLRRGKDRRKVHYGDKTPVSLAEATAVVPAPENGFNTRPAEAHDHDGAVVEREPGRIVRTKEHPAKPMSVDDALYQMELVGHDFFLFYDKDTERPSVVYRRHAYDYGLIRLA
As for B2, the binding result is given as “binds”.
